± gives the standard deviation of the averaged measurements.
System: Saccharomyces cerevisiae
Experiment: protein stability index of tFT-peptide fusion (C-terminal peptide) (PSI (0-1 scale)); higher = more stable (slower turnover)
Conditions: temperature: 30 C
Protocol: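 MPS profiling in S. cerevisiae of the yeast C-terminome library: the last 12 aa of each annotated ORF are fused to the C-terminus of a sfGFP-mCherry timer, after a GGGS linker. Cells are FACS-sorted into 8 mCherry/sfGFP bins and deep-sequenced. PSI runs from 0 (unstable) to 1 (stable); wild type and das1Δ backgrounds, two technical replicates each.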

[1] = genetic background: das1 deletion

TIAAGKISEITQ [HBS1 C-terminal 12 aa]
protein stability index [1]: 0.7292 ± 0.0066 | protein stability index (genetic background: wild type): 0.697 ± 0.01

EHTMLAKAQGHD [XPT1 C-terminal 12 aa]
protein stability index [1]: 0.71 ± 0.022 | protein stability index (genetic background: wild type): 0.6558 ± 0.0011

KHAFMGTLKKDL [RPL3 C-terminal 12 aa]
protein stability index [1]: 0.7 ± 0.01 | protein stability index (genetic background: wild type): 0.686 ± 0.03

SESNDGESSDSD [RPA43 C-terminal 12 aa]
protein stability index [1]: 0.656 ± 0.021 | protein stability index (genetic background: wild type): 0.7176 ± 0.0024

IPTKKSQMDYFL [PPH3 C-terminal 12 aa]
protein stability index [1]: 0.709 ± 0.029 | protein stability index (genetic background: wild type): 0.753 ± 0.064

AADPLSNDALFK [BRX1 C-terminal 12 aa]
protein stability index [1]: 0.733 ± 0.063 | protein stability index (genetic background: wild type): 0.737 ± 0.12

DALYRIIYGNIL [TIP20 C-terminal 12 aa]
protein stability index [1]: 0.711 ± 0.02 | protein stability index (genetic background: wild type): 0.743 ± 0.037

MKLFEENKKEEE [PET111 C-terminal 12 aa]
protein stability index [1]: 0.722 ± 0.014 | protein stability index (genetic background: wild type): 0.684 ± 0.035

YFNKTEFLLADN [MRPL17 C-terminal 12 aa]
protein stability index [1]: 0.713 ± 0.018 | protein stability index (genetic background: wild type): 0.677 ± 0.025

FGTWEIVIRLLS [RIM2 C-terminal 12 aa]
protein stability index [1]: 0.382 ± 0.0062 | protein stability index (genetic background: wild type): 0.123 ± 0.018

AVENQFFSQKKK [ACS2 C-terminal 12 aa]
protein stability index [1]: 0.707 ± 0.044 | protein stability index (genetic background: wild type): 0.697 ± 0.034

SAIGSDIVNSIF [LSB1 C-terminal 12 aa]
protein stability index [1]: 0.7044 ± 0.0053 | protein stability index (genetic background: wild type): 0.676 ± 0.024

IDLVLVVNVLSL [YCR064C C-terminal 12 aa]
protein stability index [1]: 0.425 ± 0.015 | protein stability index (genetic background: wild type): 0.428 ± 0.0062

ESFVECFESFIE [PBI1 C-terminal 12 aa]
protein stability index [1]: 0.714 ± 0.03 | protein stability index (genetic background: wild type): 0.682 ± 0.033

HKSGKLLLPVYI [ECO1 C-terminal 12 aa]
protein stability index [1]: 0.636 ± 0.0084 | protein stability index (genetic background: wild type): 0.619 ± 0.03

SRVGRKVATLDQ [YAT2 C-terminal 12 aa]
protein stability index [1]: 0.6994 ± 0.0069 | protein stability index (genetic background: wild type): 0.694 ± 0.038

MSSTKKVRFVML [RMD5 C-terminal 12 aa]
protein stability index [1]: 0.696 ± 0.035 | protein stability index (genetic background: wild type): 0.642 ± 0.035

KKLNFKLCQAFM [NUP85 C-terminal 12 aa]
protein stability index [1]: 0.673 ± 0.012 | protein stability index (genetic background: wild type): 0.6183 ± 0.006

YILQKQIIEDVE [SFH5 C-terminal 12 aa]
protein stability index [1]: 0.693 ± 0.0056 | protein stability index (genetic background: wild type): 0.65 ± 0.043

AYEPFSFRAIIE [STV1 C-terminal 12 aa]
protein stability index [1]: 0.686 ± 0.008 | protein stability index (genetic background: wild type): 0.723 ± 0.035

YDANSWKQIKSC [PCL5 C-terminal 12 aa]
protein stability index [1]: 0.7002 ± 0.0065 | protein stability index (genetic background: wild type): 0.203 ± 0.016

KGTKRDQNDNHN [AQR1 C-terminal 12 aa]
protein stability index [1]: 0.698 ± 0.01 | protein stability index (genetic background: wild type): 0.6782 ± 0.0022

KTFINNVINVYH [FRM2 C-terminal 12 aa]
protein stability index [1]: 0.6589 ± 0.006 | protein stability index (genetic background: wild type): 0.674 ± 0.018

LKYCKRRHNTPS [GCR1 C-terminal 12 aa]
protein stability index [1]: 0.747 ± 0.0077 | protein stability index (genetic background: wild type): 0.736 ± 0.021

EEEKRRRKKGIR [SPT2 C-terminal 12 aa]
protein stability index [1]: 0.706 ± 0.022 | protein stability index (genetic background: wild type): 0.662 ± 0.0095

FSVCCKDATEVS [YHR070C-A C-terminal 12 aa]
protein stability index [1]: 0.6764 ± 0.0025 | protein stability index (genetic background: wild type): 0.682 ± 0.031

QDEDEDEDIEMQ [RAD3 C-terminal 12 aa]
protein stability index [1]: 0.6935 ± 0.0052 | protein stability index (genetic background: wild type): 0.705 ± 0.057

IFVGETIFFFLF [YDR053W C-terminal 12 aa]
protein stability index [1]: 0.625 ± 0.016 | protein stability index (genetic background: wild type): 0.536 ± 0.018

VVVVVPAVVKTR [SSO1 C-terminal 12 aa]
protein stability index [1]: 0.503 ± 0.011 | protein stability index (genetic background: wild type): 0.5221 ± 0.0046

NGTMKRGGVKNK [HPC2 C-terminal 12 aa]
protein stability index [1]: 0.697 ± 0.02 | protein stability index (genetic background: wild type): 0.6239 ± 0.0045

YVASHESQKADE [RRP5 C-terminal 12 aa]
protein stability index [1]: 0.6883 ± 0.0054 | protein stability index (genetic background: wild type): 0.741 ± 0.072

PSIQHDYTMEGW [ATG3 C-terminal 12 aa]
protein stability index [1]: 0.72275 ± 0.00032 | protein stability index (genetic background: wild type): 0.6562 ± 0.0032

KKKRGFLGLFGR [SRP68 C-terminal 12 aa]
protein stability index [1]: 0.706 ± 0.021 | protein stability index (genetic background: wild type): 0.677 ± 0.0092

NHSSSGNKHDEL [MPD1 C-terminal 12 aa]
protein stability index [1]: 0.657 ± 0.0067 | protein stability index (genetic background: wild type): 0.686 ± 0.035

GSVPANWNWSSF [PIB2 C-terminal 12 aa]
protein stability index [1]: 0.739 ± 0.03 | protein stability index (genetic background: wild type): 0.699 ± 0.048

KGMKRLDYRFIH [SOA1 C-terminal 12 aa]
protein stability index [1]: 0.688 ± 0.029 | protein stability index (genetic background: wild type): 0.234 ± 0.012

IFVAILLRYAKI [PCA1 C-terminal 12 aa]
protein stability index [1]: 0.243 ± 0.013 | protein stability index (genetic background: wild type): 0.228 ± 0.006

KNLWEKFWAAVA [LYP1 C-terminal 12 aa]
protein stability index [1]: 0.693 ± 0.0092 | protein stability index (genetic background: wild type): 0.28 ± 0.021

ILRPLELKYFGR [FCY2 C-terminal 12 aa]
protein stability index [1]: 0.707 ± 0.029 | protein stability index (genetic background: wild type): 0.675 ± 0.027

ASFVEVNAEVFL [FRS1 C-terminal 12 aa]
protein stability index [1]: 0.7129 ± 0.0051 | protein stability index (genetic background: wild type): 0.7111 ± 0.0032

KQSVQQQKTGNY [YHL009W-A C-terminal 12 aa]
protein stability index [1]: 0.699 ± 0.018 | protein stability index (genetic background: wild type): 0.663 ± 0.00095
